Data on two molecules can be found in publication PMC3246092 (Gene, 2011).

First the molecules themselves.
T1: Rrn7p subunit of recombinant core factor, N-terminal 6-his (S. cerevisiae, UniProt P40992 1-514)
T1 sequence (looked up): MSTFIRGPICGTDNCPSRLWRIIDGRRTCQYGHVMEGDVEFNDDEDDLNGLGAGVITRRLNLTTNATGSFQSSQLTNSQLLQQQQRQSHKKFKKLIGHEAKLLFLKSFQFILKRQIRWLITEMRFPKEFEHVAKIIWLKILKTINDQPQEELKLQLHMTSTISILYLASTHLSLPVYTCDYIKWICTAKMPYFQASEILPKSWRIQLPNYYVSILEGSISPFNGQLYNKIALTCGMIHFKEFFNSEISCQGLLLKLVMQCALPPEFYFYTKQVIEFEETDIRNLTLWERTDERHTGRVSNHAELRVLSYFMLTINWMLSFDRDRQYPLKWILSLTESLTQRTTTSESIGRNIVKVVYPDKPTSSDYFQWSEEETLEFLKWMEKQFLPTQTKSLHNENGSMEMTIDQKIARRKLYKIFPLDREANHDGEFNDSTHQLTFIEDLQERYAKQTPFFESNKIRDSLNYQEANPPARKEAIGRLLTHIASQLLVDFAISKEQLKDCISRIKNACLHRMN

B1: Rrn6p subunit of recombinant core factor (natural protein, S. cerevisiae, UniProt P32786 1-894, looked up)
chain: MSEGQIPSSDVLGSQLGVGVQGASLYCPQENYTTKKQEKPQWLRPVDDTLAEDALDLHIVVKSLLCDTAIRYISDDKVLQESDADDDLITSDIDEDTDNQGDTSIVVNPVIPVVPKDVHFFKKVDVGNDSMFGVNCDTPVSFQDYIPSDLLRNLDDTLQESTNSSRPMQDAFFWDPTVANRLDSQYIQTASDLRNYRDGTEIIAYASGKTGSVLNIAVLTRQNTLHLNRHNNVTSIELHSPIKSIKIPGASESIGRRSNLVGIITENSFQIFRIESVHSRSCDVMVSSSEPLYFVEIDDLQVVDFAFNPWDLQQFAIIDIKGNWSIGRIPKNFNNNNKRKLQLIDNLHGTIFDPEELSSWKRIEWFSHFQKILVFDRSKMIEIDFMNNWQTEVVQAKAWSNIRDYKRIDDKNGILLTSREIIIVGASESNDPVRRISWKHDLDPDDTTLRITVQKVKKPDHILLVAFVYSMRHKRIYMHVFSHRKANLFQSLGCSTVLEIPGGTPTGIETILTLDHIDDESRREEDADENFELVVDFLVKLRNSSEVYYYALSNTQNSEPNKQETPIIVDHPEWASLFNNADEREKESIGALVSQIKLKERERISRVQNLIEHENSHDEDKYLQDLGYRLSIATNELLESWQKTKDESILSGSLSHSKLKNLLENSDSFASIPEFSSLLDQFFQYYQDQDVTFIGFEKLLHLFLHEDVPGLDIFYNKLLQCWVLVSPQAELLTKEIVKDIIWSLARLEKPSLFEPIQNEISRSLSGPYQDIISSWDMDDINEEDESNEFNFDSQFSAPFNGRPPFNLNSQSQIPTIKSSQSSGLARRKRILKTQSQKATPLSQSTQNLSVLPDSMTPAFTLMQPPSSQISFVNDSQPRNSQKAKKKKKRIRGFG
B2: Rrn11p subunit of recombinant core factor, N-terminal 6-his (natural protein, S. cerevisiae, UniProt Q04712 1-507, looked up)
chain: MFEVPITLTNRKFAQRRKLKYQYINYISRRFDRISKKSTTTDSLPTPENSAAENNDEEEGQNSEAGTYRRSVLQQKKRRRERHWRSVVGEIYSTTESETDSQEEETEEGGEHDTGIDKEDSDEERKFWKKYEKPEKSFEIWRTVSSQNKQPINKQKMTYHNFKKIEKIPLRKMEIPLLHCTKENKLYFQSISRGLEPLKTSTSEVRNYRTRHIVTLTDLLHLNVSRHNWSLAYKIFATLIRIPGVQIKSLWGIGVEILDNLSNSSSGLDFLQWMCQIYSSKSRFVQNINYRSIVPPFQTGSRTHTAKFAITYLWSSLINCQKSMEPSSNIIDKPFDTENDLLQELIDKISEWVLTPPFMEDAEVWFIYASCHLLKADTLSRQFVNDNKNNDLIGLDRDIKINQVIKHIHYVRTFLKICLDKGGFAVPSRLIENQLKSFESRLYGEAQDIQERDVANVYDSIDNSSVENSFGDVYETNAEFLDTQLMDLSPEDNGLDEMHYSDEDSSE

The target of assay [1] is B2. The experiment in a line: quantification of Sypro Ruby stained SDS-PAGE bands of the purified complex.
In assay [2] the target is T1, Rrn7p subunit of recombinant core …. Described as above.

By stoichiometry N is commonly meant a count of units in the complex or per binding partner. Turning to B1, the “stoichiometry N” value in assay [1] and in assay [2] was 1 throughout. Consider B2, for which the “stoichiometry N” value in assay [2] was 1.
